Laboratory results: article PMC9700037

Biological target: His6-tev-DPP9 (UniProt Q86TI2)
Assay: SEC-MALS; co-eluting SEC fractions of FIIND, DPP9 and free UPA co-expressed in Sf9 and co-purified; 0.5-1.0 mg/ml, Superose 6 increase (10/300) GL, buffer A without glycerol

Chain of free UPA domain (from the SUMO-UPA construct) (domain or fragment) (Q9C000 whole entry, the tested form may be a part): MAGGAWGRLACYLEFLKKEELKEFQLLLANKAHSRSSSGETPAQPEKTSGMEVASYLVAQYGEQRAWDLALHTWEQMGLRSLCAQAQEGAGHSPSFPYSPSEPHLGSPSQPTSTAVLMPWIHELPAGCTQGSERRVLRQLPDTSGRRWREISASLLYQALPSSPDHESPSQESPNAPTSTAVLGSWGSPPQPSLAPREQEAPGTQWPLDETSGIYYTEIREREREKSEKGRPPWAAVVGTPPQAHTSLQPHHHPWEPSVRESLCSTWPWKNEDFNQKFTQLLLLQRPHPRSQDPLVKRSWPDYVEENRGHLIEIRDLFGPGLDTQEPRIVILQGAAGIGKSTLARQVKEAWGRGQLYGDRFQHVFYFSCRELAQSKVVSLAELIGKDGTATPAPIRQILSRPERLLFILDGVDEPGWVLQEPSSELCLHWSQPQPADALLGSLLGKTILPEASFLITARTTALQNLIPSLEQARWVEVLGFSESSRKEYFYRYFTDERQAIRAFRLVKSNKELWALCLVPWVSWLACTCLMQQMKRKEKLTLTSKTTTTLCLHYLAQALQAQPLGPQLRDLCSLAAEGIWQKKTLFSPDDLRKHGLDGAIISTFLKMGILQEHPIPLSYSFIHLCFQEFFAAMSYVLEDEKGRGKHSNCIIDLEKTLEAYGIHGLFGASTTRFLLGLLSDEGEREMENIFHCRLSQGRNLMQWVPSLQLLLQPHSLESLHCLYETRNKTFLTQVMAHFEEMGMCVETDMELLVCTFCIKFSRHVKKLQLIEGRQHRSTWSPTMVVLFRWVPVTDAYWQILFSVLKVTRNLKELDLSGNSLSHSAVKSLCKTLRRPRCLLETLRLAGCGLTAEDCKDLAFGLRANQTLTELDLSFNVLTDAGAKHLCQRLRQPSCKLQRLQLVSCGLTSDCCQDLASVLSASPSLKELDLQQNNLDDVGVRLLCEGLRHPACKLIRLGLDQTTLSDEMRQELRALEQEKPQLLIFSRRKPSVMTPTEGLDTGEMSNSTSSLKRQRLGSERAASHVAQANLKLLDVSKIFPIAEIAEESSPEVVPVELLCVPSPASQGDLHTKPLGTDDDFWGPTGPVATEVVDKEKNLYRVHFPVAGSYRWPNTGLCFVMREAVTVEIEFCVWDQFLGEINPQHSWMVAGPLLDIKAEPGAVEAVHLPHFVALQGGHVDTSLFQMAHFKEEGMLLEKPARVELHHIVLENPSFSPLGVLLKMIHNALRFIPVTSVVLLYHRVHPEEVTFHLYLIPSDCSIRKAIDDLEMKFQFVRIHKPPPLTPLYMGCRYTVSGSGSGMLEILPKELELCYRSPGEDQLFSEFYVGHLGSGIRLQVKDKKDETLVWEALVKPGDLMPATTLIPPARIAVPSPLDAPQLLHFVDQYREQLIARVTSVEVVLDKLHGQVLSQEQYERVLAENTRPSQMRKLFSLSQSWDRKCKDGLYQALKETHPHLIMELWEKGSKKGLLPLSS
Chain of His6-tev-DPP9 (Q86TI2 whole entry): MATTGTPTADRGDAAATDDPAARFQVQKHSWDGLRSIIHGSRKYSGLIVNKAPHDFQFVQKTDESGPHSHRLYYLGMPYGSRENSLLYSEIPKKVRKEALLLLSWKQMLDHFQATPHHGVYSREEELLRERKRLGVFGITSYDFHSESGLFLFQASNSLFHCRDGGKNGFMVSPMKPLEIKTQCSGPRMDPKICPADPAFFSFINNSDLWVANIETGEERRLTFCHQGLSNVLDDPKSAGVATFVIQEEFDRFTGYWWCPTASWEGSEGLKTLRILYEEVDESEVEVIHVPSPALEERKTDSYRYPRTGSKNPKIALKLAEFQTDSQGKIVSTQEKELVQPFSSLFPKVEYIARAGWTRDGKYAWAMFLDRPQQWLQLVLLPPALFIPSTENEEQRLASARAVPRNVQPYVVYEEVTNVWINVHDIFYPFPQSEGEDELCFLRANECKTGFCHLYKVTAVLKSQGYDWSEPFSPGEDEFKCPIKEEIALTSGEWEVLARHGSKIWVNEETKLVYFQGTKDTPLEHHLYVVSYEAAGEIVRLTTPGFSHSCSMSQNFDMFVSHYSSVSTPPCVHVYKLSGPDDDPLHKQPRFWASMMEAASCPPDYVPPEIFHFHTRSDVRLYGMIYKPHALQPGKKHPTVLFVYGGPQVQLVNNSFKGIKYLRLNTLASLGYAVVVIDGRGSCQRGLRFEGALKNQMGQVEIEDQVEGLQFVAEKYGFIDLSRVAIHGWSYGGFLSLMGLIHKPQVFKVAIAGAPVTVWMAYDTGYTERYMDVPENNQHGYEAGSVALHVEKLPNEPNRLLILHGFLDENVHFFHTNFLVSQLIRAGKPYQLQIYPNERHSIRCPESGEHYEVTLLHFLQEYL

free UPA domain (from the SUMO-UPA construct) (domain or fragment)
stoichiometry N (UPA per DPP9 dimer): 1
